Test results from the Immune Epitope Database (IEDB).

Legend:
HLA-A*02:01 [1] = assay: IEDB peptide-MHC binding, purified MHC/direct/fluorescence; filed as Kd, often an IC50 or EC50 that approximates it; ≥ and ≤ were set here for values at or beyond the usual limits of such assays; settings: source organism: Human herpesvirus 4 strain B95-8
HLA-A*32:15 = assay: IEDB peptide-MHC binding, purified MHC/competitive/fluorescence; filed as Kd, often an IC50 or EC50 that approximates it; ≥ and ≤ were set here for values at or beyond the usual limits of such assays
HLA-B*45:06 = assay: as above
HLA-B*15:42 = assay: as above
HLA-B*83:01 = assay: as above
HLA-A*68:23 = assay: as above; settings: source organism: human gammaherpesvirus 4
HLA-C*06:02 = assay: IEDB peptide-MHC binding, purified MHC/direct/fluorescence; filed as Kd, often an IC50 or EC50 that approximates it; ≥ and ≤ were set here for values at or beyond the usual limits of such assays
HLA-C*05:01 = assay: as above
HLA-B*51:01 = assay: IEDB peptide-MHC binding, purified MHC/competitive/fluorescence; filed as Kd, often an IC50 or EC50 that approximates it; ≥ and ≤ were set here for values at or beyond the usual limits of such assays; settings: source organism: Vibrio antiquarius
HLA-B*15:01 = assay: as above; settings: source organism: Vibrio antiquarius
HLA-B*58:01 = assay: as above; settings: source organism: Vibrio antiquarius
HLA-A*02:01 [2] = assay: as above
HLA-B*39:01 = assay: as above; settings: source organism: Vibrio antiquarius
HLA-C*12:03 = assay: IEDB peptide-MHC binding, purified MHC/direct/fluorescence; filed as Kd, often an IC50 or EC50 that approximates it; ≥ and ≤ were set here for values at or beyond the usual limits of such assays; settings: source organism: Homo sapiens
HLA-A*26:01 = assay: IEDB peptide-MHC binding, purified MHC/competitive/fluorescence; filed as Kd, often an IC50 or EC50 that approximates it; ≥ and ≤ were set here for values at or beyond the usual limits of such assays; settings: source organism: Homo sapiens
HLA-A*03:01 = assay: as above; settings: source organism: Homo sapiens
HLA-B*27:03 = assay: as above; settings: source organism: Homo sapiens
HLA-A*02:06 = assay: IEDB peptide-MHC binding, purified MHC/competitive/radioactivity; filed as Kd, often an IC50 or EC50 that approximates it; ≥ and ≤ were set here for values at or beyond the usual limits of such assays; settings: source organism: Dengue virus 2 Jamaica/1409/1983
HLA-A*02:17 = assay: as above; settings: source organism: Dengue virus 2 Jamaica/1409/1983
HLA-A*68:02 = assay: as above; settings: source organism: Dengue virus 2 Jamaica/1409/1983
HLA-A*02:01 [3] = assay: as above; settings: source organism: Dengue virus 2 Jamaica/1409/1983
HLA-A*02:03 = assay: as above; settings: source organism: Dengue virus 2 Jamaica/1409/1983
HLA-C*08:02 = assay: IEDB peptide-MHC binding, purified MHC/direct/fluorescence; filed as Kd, often an IC50 or EC50 that approximates it; ≥ and ≤ were set here for values at or beyond the usual limits of such assays; settings: source organism: dengue virus type 1
HLA-C*14:02 = assay: as above; settings: source organism: dengue virus type 1
HLA-B*46:01 = assay: IEDB peptide-MHC binding, purified MHC/competitive/fluorescence; filed as Kd, often an IC50 or EC50 that approximates it; ≥ and ≤ were set here for values at or beyond the usual limits of such assays; settings: source organism: dengue virus type 1
[4] = source organism: human gammaherpesvirus 4
[5] = source organism: Vibrio antiquarius
[6] = source organism: dengue virus type 1

Sequence EVFFGLSRY has a Kd (HLA-A*02:01 [1]) of no less than 10 µM, a Kd (HLA-A*32:15; [4]) of 0.0269 µM and a Kd (HLA-B*45:06; [4]) of no less than 5 µM. For the same sequence, the Kd (HLA-B*15:42; [4]) was no less than 5 µM, the Kd (HLA-B*83:01; [4]) was no less than 5 µM and the Kd (HLA-A*68:23) was no more than 0.0001 µM.
With FAMTVPLLI the Kd (HLA-C*06:02; [5]) was 0.026 µM, the Kd (HLA-C*05:01; [5]) was no more than 0.001 µM and the Kd (HLA-B*51:01) was 0.126 µM. For the same sequence, the Kd (HLA-B*15:01) was no less than 20 µM, the Kd (HLA-B*58:01) was 0.0014 µM and the Kd (HLA-A*02:01 [2]; [5]) was 0.0027 µM. It also gave a Kd (HLA-B*39:01) of 0.009 µM.
FLNPVIYTF gave a Kd (HLA-C*12:03) of 0.029 µM, a Kd (HLA-A*26:01) of no less than 20 µM and a Kd (HLA-A*32:15; source organism: Homo sapiens) of 0.024 µM. For the same sequence, the Kd (HLA-B*45:06; source organism: Homo sapiens) was no less than 5 µM, the Kd (HLA-A*03:01) was no less than 20 µM and the Kd (HLA-B*27:03) was no less than 20 µM. For the same sequence, the Kd (HLA-B*15:42; source organism: Homo sapiens) was no less than 5 µM, the Kd (HLA-A*02:01 [2]; source organism: Homo sapiens) was 0.0016 µM and the Kd (HLA-B*83:01; source organism: Homo sapiens) was 0.24 µM.
FTMRLLSPV showed a Kd (HLA-A*02:06) of 0.00432 µM, a Kd (HLA-A*02:17) of 0.0298 µM and a Kd (HLA-A*68:02) of 0.00078 µM. It also gave a Kd (HLA-A*02:01 [3]) of 0.00156 µM, a Kd (HLA-A*02:03) of 0.00344 µM and a Kd (HLA-C*08:02) of 0.316 µM. It also gave a Kd (HLA-C*06:02; [6]) of no less than 20 µM, a Kd (HLA-C*14:02) of 0.098 µM and a Kd (HLA-C*05:01; [6]) of 2.29 µM. The Kd (HLA-B*46:01) was 0.015 µM, the Kd (HLA-A*32:15; [6]) was 0.116 µM and the Kd (HLA-B*45:06; [6]) was no less than 5 µM. The Kd (HLA-B*15:42; [6]) was no less than 5 µM and the Kd (HLA-B*83:01; [6]) was no less than 5 µM.
